Key:
Experiment in all cases: liposome recruitment assay (liposome flotation, gel band quantification)
[1] = biological target: Sec23–Sec24 complex (WT), P15303;P40482; details: GMP-PNP, 400 nm unilamellar liposomes, read off a plot
[2] = biological target: Sec13–Sec31 complex (WT), Q04491;P38968; details: GMP-PNP; 400 nm unilamellar liposomes; parent: est. 1.1; read off a plot
Sar1 = Sar1 (UniProt P20606); details: GMP-PNP; 400 nm unilamellar liposomes; parent: est. 0.98; read off a plot
Chain of Sar1 (P20606 whole entry): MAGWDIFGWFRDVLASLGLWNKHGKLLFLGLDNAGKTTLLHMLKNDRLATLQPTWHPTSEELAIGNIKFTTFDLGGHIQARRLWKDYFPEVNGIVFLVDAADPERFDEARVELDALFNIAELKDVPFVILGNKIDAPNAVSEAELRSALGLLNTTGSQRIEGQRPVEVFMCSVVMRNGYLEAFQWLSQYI

Chain of Sec23–Sec24 complex (WT) (P15303 whole entry, stated change not applied, the tested form may be a part): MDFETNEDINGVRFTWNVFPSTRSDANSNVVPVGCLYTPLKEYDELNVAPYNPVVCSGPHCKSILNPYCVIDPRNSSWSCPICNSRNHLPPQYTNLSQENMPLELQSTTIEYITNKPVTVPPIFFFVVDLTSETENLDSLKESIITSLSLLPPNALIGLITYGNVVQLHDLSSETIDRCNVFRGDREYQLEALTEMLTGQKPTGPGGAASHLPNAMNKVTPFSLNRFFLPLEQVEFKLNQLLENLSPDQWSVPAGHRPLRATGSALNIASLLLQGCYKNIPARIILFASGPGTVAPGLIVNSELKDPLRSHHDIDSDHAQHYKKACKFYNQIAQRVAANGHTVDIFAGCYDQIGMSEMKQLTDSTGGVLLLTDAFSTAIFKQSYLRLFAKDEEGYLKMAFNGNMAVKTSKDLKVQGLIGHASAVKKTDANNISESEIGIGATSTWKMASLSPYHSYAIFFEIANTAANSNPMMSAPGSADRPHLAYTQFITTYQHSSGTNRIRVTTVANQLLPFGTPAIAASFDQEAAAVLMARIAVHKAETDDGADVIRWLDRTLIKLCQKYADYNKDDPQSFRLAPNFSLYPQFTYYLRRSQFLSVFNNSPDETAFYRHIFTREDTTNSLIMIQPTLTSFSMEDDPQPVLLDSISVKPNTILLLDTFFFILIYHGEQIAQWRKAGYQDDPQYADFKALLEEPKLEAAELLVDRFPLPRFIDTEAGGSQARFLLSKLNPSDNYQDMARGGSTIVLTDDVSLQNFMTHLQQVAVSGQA
Chain of Sec23–Sec24 complex (WT) (P40482 whole entry, stated change not applied, the tested form may be a part): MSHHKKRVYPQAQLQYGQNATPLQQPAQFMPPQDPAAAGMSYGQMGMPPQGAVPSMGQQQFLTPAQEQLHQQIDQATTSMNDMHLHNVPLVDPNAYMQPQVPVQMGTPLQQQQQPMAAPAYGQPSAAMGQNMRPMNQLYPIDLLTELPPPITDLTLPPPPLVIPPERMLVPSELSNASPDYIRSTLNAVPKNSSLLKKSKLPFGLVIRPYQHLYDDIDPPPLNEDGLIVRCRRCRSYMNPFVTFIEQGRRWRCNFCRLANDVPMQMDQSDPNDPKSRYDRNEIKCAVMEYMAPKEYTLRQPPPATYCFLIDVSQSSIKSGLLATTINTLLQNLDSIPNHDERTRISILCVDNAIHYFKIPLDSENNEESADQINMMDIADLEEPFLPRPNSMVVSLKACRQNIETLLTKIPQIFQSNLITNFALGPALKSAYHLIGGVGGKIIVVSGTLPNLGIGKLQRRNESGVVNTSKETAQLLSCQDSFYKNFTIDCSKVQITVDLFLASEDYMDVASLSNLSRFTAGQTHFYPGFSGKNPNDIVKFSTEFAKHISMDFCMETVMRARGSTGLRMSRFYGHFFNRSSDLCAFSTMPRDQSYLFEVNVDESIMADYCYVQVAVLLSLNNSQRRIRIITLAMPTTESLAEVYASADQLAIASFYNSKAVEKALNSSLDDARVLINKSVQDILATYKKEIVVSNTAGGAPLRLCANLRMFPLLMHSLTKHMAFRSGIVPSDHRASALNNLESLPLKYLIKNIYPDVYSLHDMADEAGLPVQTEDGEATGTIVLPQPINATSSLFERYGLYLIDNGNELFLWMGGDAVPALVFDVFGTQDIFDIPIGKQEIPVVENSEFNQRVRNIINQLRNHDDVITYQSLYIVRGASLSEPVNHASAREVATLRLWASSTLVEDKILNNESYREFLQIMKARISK
Chain of Sec13–Sec31 complex (WT) (Q04491 whole entry, stated change not applied): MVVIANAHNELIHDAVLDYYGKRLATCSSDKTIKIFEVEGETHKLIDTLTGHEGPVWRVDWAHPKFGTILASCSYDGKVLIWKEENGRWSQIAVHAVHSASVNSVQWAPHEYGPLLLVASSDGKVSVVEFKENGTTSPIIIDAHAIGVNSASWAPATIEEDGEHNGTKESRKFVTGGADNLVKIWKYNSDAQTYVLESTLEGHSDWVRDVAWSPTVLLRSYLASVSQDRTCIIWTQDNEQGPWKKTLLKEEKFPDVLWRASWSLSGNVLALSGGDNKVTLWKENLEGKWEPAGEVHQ
Chain of Sec13–Sec31 complex (WT) (P38968 whole entry, stated change not applied): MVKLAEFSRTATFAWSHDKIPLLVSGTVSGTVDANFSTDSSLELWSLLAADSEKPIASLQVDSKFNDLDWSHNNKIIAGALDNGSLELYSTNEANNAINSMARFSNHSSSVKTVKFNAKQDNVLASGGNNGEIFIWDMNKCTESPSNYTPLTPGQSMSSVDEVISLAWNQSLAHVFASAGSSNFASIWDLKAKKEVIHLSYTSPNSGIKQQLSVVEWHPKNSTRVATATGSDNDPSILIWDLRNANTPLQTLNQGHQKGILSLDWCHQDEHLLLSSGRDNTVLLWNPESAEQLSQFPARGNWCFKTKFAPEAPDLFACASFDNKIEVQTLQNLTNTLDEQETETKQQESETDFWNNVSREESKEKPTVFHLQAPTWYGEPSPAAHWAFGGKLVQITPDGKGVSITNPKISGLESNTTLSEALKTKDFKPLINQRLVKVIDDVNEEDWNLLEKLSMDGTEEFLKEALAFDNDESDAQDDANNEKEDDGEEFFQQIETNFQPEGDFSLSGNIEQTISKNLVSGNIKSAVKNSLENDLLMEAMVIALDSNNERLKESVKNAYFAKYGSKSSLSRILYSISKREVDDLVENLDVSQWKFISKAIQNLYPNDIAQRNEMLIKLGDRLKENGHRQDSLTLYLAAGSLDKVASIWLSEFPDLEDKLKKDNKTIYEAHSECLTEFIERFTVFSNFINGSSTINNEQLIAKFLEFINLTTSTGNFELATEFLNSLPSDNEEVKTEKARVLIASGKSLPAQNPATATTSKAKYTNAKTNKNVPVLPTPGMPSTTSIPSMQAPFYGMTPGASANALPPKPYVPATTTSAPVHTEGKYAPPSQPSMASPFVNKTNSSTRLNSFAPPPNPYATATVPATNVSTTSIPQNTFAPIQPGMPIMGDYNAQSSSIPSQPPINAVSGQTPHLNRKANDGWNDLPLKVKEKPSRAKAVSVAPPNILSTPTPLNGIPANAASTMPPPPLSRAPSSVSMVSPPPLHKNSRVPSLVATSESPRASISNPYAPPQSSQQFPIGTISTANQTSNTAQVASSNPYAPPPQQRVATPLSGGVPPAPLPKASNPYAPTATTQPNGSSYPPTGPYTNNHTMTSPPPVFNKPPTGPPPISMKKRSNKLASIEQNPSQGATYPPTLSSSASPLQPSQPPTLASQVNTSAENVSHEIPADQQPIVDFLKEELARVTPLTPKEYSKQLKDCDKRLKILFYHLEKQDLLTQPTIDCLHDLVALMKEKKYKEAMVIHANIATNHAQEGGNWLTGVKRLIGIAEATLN
Chain of Sec13–Nhis-Sec31 complex (Q04491 whole entry, stated change not applied): as the sequence (Q04491 whole entry, stated change not applied) above
Chain of Sec13–Nhis-Sec31 complex (P38968 whole entry, stated change not applied): as the sequence (P38968 whole entry, stated change not applied) above

Sec13–Sec31 complex (WT) (from UniProt Q04491;P38968) ΔPPP (glycine/serine substitution of all six PPP motifs plus an additional PPAP motif; residues not printed)
other: Ratio Sec31:Sec23 ([1]; parent: est. 1.1): 1.2

Sec23–Sec24 complex (WT) (from UniProt P15303;P40482) Δcharge (charge reversal of a negatively charged surface adjacent to the gelsolin domain of Sec23; residues not printed)
other: Protein ratio Sec31:Sec23 [2]: 0.43 | other: Protein ratio Sec23:Sar1 (Sar1): 1.1

Sec13–Nhis-Sec31 complex (from UniProt Q04491;P38968) ΔPPP (glycine/serine substitution of all six PPP motifs plus an additional PPAP motif; residues not printed)
other: Ratio Sec31:Sec23 ([1]; parent: est. 0.91): 0.91
